Assay results as given in article PMC4720891.

Target: HA-Mdm2 (human) (UniProt Q00987)
Sequence (Q00987 whole entry): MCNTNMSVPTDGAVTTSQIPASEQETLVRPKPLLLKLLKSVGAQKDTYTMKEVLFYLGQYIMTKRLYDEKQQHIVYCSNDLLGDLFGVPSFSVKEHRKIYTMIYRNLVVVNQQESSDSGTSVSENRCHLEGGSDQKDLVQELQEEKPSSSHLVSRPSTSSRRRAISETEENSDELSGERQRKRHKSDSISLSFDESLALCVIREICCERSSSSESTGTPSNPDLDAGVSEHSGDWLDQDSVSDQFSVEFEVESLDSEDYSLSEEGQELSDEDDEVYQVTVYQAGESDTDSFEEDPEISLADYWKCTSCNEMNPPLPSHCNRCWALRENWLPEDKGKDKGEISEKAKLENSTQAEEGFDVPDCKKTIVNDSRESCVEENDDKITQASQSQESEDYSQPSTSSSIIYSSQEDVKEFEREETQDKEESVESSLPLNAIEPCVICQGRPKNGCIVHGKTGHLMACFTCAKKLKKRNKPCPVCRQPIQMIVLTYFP

B1: FLAG-MdmX (natural protein)
chain: MTSFSTSAQCSTSDSACRISPGQINQVRPKLPLLKILHAAGAQGEMFTVKEVMHYLGQYIMVKQLYDQQEQHMVYCGGDLLGELLGRQSFSVKDPSPLYDMLRKNLVTLATATTDAAQTLALAQDHSMDIPSQDQLKQSAEESSTSRKRTTEDDIPTLPTSEHKCIHSREDEDLIENLAQDETSRLDLGFEEWDVAGLPWWFLGNLRSNYTPRSNGSTDLQTNQDVGTAIVSDTTDDLWFLNESVSEQLGVGIKVEAADTEQTSEEVGKVSDKKVIEVGKNDDLEDSKSLSDDTDVEVTSEDEWQCTECKKFNSPSKRYCFRCWALRKDWYSDCSKLTHSLSTSDITAIPEKENEGNDVPDCRRTISAPVVRPKDAYIKKENSKLFDPCNSVEFLDLAHSSESQETISSMGEQLDNLSEQRTDTENMEDCQNLLKPCSLCEKRPRDGNIIHGRTGHLVTCFHCARRLKKAGASCPICKKEIQLVIKVFIA
  FRET (HTRF) signal of MdmX-stimulated Mdm2 autoubiquitination in vitro, against the baseline without MdmX; rises with MdmX concentration and with reaction time: 8 fold
